The source of these data is patent US20240287202A1 (XYPHOS BIOSCIENCES, published 2024).

In test [1] the target is T1, A1-A2 domain of human ULBP3 with C-terminal 6x-His tag (monomer) (human, UniProt Q9BZM4 30-212).
T1 construct: range 30-212; also called MIC-His ligand
T1 sequence: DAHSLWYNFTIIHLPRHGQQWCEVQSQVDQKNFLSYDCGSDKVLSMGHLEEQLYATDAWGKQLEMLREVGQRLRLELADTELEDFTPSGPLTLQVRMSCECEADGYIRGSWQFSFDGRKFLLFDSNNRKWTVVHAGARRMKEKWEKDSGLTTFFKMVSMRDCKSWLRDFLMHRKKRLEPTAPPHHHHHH
As to the kind of experiment: Octet BLI, Fc-iNKG2D.AF on AHC tips, monomeric ligand (FIG. 3A). From the text:
(§1) Library design and phage panning performed was as described for iNKG2D. […] Data are representative of two experiments. […] Error bars represent ±SD of technical replicates.

Test [2] addresses T2, A1-A2 domain of human MICA*001 with C-terminal 6x-His tag (monomer) (human, UniProt Q29983 24-205).
T2 construct: range 24-205; also called MIC-His ligand
T2 sequence: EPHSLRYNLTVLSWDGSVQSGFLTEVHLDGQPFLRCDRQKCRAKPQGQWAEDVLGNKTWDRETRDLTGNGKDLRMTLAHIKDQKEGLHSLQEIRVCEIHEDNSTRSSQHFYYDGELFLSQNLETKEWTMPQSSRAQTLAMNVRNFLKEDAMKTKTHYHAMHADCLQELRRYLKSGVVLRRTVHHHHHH
The test is described as above.
Text: as §1

The target in test [3] is T3, A1-A2 domain of human MICB with C-terminal 6x-His tag (monomer) (human, UniProt Q29980 24-205).
T3 construct: range 24-205; also called MIC-His ligand
T3 sequence: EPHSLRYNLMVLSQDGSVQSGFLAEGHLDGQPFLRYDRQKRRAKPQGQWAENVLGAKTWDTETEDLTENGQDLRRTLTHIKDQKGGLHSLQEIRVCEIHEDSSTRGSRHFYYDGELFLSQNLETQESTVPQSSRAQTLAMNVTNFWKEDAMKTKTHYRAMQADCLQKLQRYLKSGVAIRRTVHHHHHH
As to the kind of experiment: Octet BLI, response against concentration (legend: monomeric ligands; axis on the sheet: nM Fc-iNKG2D.AF). For orientation: BLI is a label-free optical method that tracks binding on a fibre tip over time.

B1: Fc-iNKG2D.AF (NKG2D ectodomain Y152A/Y199F fused to the C-terminus of human IgG1 Fc) (Fc fusion)
chain: IEGRFLNSLFNQEVQIPLTESYCGPCPKNWICYKNNCYQFFDESKNWYESQASCMSQNASLLKVYSKEDQDLLKLVKSAHWMGLVHIPTNGSWQWEDGSILSPNLLTIIEMQKGDCALYASSFKGFIENCSTPNTYICMQRTV
notes: range 78-216; also called Fc-NKG2D.AF; not shown: human IgG1 Fc
With B1, the results for the binding result in test [1], in test [2] and in test [3] were “no binding”, “no binding” and “binds”, respectively.
